Experimental data taken from PMC8860611.

Molecular target: HIV-1 CA A14C/E45C/W184A/M185A (pET11a-CA (A14C, E45C, W184A and M185A)), assembled into soluble cross-linked hexamers (HIV-1)
Experiment: cross-linking

“HIV-1 CA A14C/E45C/W184A/M185A (pET11a-CA (A14C, E45C, W184A and M185A)), assembled into soluble cross-linked hexamers (natural protein)” was tested. Which stoichiometry N did it give?
The stoichiometry N was 6.
